The results in this text go back to patent US20200199241A1 (Chugai, published 2020).

First the molecules themselves.
B1: IgG1-F930 (antibody)
heavy: QVQLQESGPGLVKPSETLSLTCAVSGHSISHDHAWSWVRQPPGEGLEWIGFISYSGITNYNPSLQGRVTISRDNSKNTLYLQMNSLRAEDTAVYYCARSLARTTAMDYWGEGTLVTVSSASTKGPSVFPLAPSSKSTSGGTAALGCLVKDYFPEPVTVSWNSGALTSGVHTFPAVLQSSGLYSLSSVVTVPSSSLGTQTYICNVNHKPSNTKVDKKVEPKSCDKTHTCPPCPAPELLGGDSVFLFPPKPKDVLYISRTPEVTCVVVDVSHEDPEVKFNWYVDGVEVHEAKTKPREEQYNSTYRVVSVLTVLHQDWLNGKEYKCKVSNKALPAPIEKTISKAKGQPREPQVYTLPPSRDELTKNQVSLTCLVKGFYPSDIAVEWESNGQPENNYKTTPPVLDSDGSFFLYSKLTVDKSRWQQGNVFSCSVMHEALHYHYTQKSLSLSP
light: not shown
notes: EU numbering; copies: 2 + 2
B2: IgG1-F939 (antibody)
heavy: QVQLQESGPGLVKPSETLSLTCAVSGHSISHDHAWSWVRQPPGEGLEWIGFISYSGITNYNPSLQGRVTISRDNSKNTLYLQMNSLRAEDTAVYYCARSLARTTAMDYWGEGTLVTVSSASTKGPSVFPLAPSSKSTSGGTAALGCLVKDYFPEPVTVSWNSGALTSGVHTFPAVLQSSGLYSLSSVVTVPSSSLGTQTYICNVNHKPSNTKVDKKVEPKSCDKTHTCPPCPAPELRGGPKVFLFPPKPKDTLYISRTPEVTCVVVDVSHEDPEVKFNWYVDGVEVHNAKTKPREEQYNSTYRVVSVLTVLHQDWLNGKEYKCKVSNKALPAPIEKTISKAKGQPREPQVYTLPPSRDELTKNQVSLTCLVKGFYPSDIAVEWESNGQPENNYKTTPPVLDSDGSFFLYSKLTVDKSRWQQGNVFSCSVMHEALHYHVTQKSLSLSP
light: not shown
notes: copies: 2 + 2
B3: IgG1-F940 (antibody)
heavy: QVQLQESGPGLVKPSETLSLTCAVSGHSISHDHAWSWVRQPPGEGLEWIGFISYSGITNYNPSLQGRVTISRDNSKNTLYLQMNSLRAEDTAVYYCARSLARTTAMDYWGEGTLVTVSSASTKGPSVFPLAPSSKSTSGGTAALGCLVKDYFPEPVTVSWNSGALTSGVHTFPAVLQSSGLYSLSSVVTVPSSSLGTQTYICNVNHKPSNTKVDKKVEPKSCDKTHTCPPCPAPELLGGDSVFLFPPKPKDVLYISRTPEVTCVVVDVSHEDPEVKFNWYVDGVEVHNAKTKPREEQYNSTYRVVSVLTVLHQDWLNGKEYKCKVSNKALPAPIEKTISKAKGQPREPQVYTLPPSRDELTKNQVSLTCLVKGFYPSDIAVEWESNGQPENNYKTTPPVLDSDGSFFLYSKLTVDKSRWQQGNVFSCSVMHEALHYHVTQKSLSLSP
light: not shown
notes: EU numbering; copies: 2 + 2
B4: IgG1-F935 (antibody)
heavy: QVQLQESGPGLVKPSETLSLTCAVSGHSISHDHAWSWVRQPPGEGLEWIGFISYSGITNYNPSLQGRVTISRDNSKNTLYLQMNSLRAEDTAVYYCARSLARTTAMDYWGEGTLVTVSSASTKGPSVFPLAPSSKSTSGGTAALGCLVKDYFPEPVTVSWNSGALTSGVHTFPAVLQSSGLYSLSSVVTVPSSSLGTQTYICNVNHKPSNTKVDKKVEPKSCDKTHTCPPCPAPELLGKDSVFLFPPKPKDVLYISRTPEVTCVVVDVSHEDPEVKFNWYVDGVEVHNAKTKPREEQYNSTYRVVSVLTVLHQDWLNGKEYKCKVSNKALPAPIEKTISKAKGQPREPQVYTLPPSRDELTKNQVSLTCLVKGFYPSDIAVEWESNGQPENNYKTTPPVLDSDGSFFLYSKLTVDKSRWQQGNVFSCSVMHEALHYHYTQKSLSLSP
light: not shown
notes: EU numbering; copies: 2 + 2
B5: IgG1-F933 (antibody)
heavy: QVQLQESGPGLVKPSETLSLTCAVSGHSISHDHAWSWVRQPPGEGLEWIGFISYSGITNYNPSLQGRVTISRDNSKNTLYLQMNSLRAEDTAVYYCARSLARTTAMDYWGEGTLVTVSSASTKGPSVFPLAPSSKSTSGGTAALGCLVKDYFPEPVTVSWNSGALTSGVHTFPAVLQSSGLYSLSSVVTVPSSSLGTQTYICNVNHKPSNTKVDKKVEPKSCDKTHTCPPCPAPERLGGDSVFLFPPKPKDVLYISRTPEVTCVVVDVSHEDPEVKFNWYVDGVEVHNAKTKPREEQYNSTYRVVSVLTVLHQDWLNGKEYKCKVSNKALPAPIEKTISKAKGQPREPQVYTLPPSRDELTKNQVSLTCLVKGFYPSDIAVEWESNGQPENNYKTTPPVLDSDGSFFLYSKLTVDKSRWQQGNVFSCSVMHEALHYHYTQKSLSLSP
light: not shown
notes: EU numbering; copies: 2 + 2
B6: IgG1-F931 (antibody)
heavy: QVQLQESGPGLVKPSETLSLTCAVSGHSISHDHAWSWVRQPPGEGLEWIGFISYSGITNYNPSLQGRVTISRDNSKNTLYLQMNSLRAEDTAVYYCARSLARTTAMDYWGEGTLVTVSSASTKGPSVFPLAPSSKSTSGGTAALGCLVKDYFPEPVTVSWNSGALTSGVHTFPAVLQSSGLYSLSSVVTVPSSSLGTQTYICNVNHKPSNTKVDKKVEPKSCDKTHTCPPCPAPELLGGDSVFLFPPKPKDVLYISRTPEVTCVVVDVSHEDPEVKFNWYVDGVEVHNAKTKPREEQYNSTYRVVSVLTVLHQDWLNGKEYKCKVSNKALPAPIEKTISKAKGQPREPQVYTLPPSRDELTKNQVSLTCLVKGFYPSDIAVEWESNGQPENNYKTTPPVLDSDGSFFLYSKLTVDKSRWQQGNVFSCSVMHEALHYHITQKSLSLSP
light: not shown
notes: EU numbering; copies: 2 + 2
B7: IgG1-F943 (antibody)
heavy: QVQLQESGPGLVKPSETLSLTCAVSGHSISHDHAWSWVRQPPGEGLEWIGFISYSGITNYNPSLQGRVTISRDNSKNTLYLQMNSLRAEDTAVYYCARSLARTTAMDYWGEGTLVTVSSASTKGPSVFPLAPSSKSTSGGTAALGCLVKDYFPEPVTVSWNSGALTSGVHTFPAVLQSSGLYSLSSVVTVPSSSLGTQTYICNVNHKPSNTKVDKKVEPKSCDKTHTCPPCPAPELRGGPKVFLFPPKPKDTLYISRTPEVTCVVVDVSHEDPEVKFNWYVDGVEVHNAKTKPREEQYNSTYRVVSVLQVLHADWLNGKEYKCKVSNKALPAPIEKTISKAKGQPREPQVYTLPPSRDELTKNQVSLTCLVKGFYPSDIAVEWESNGQPENNYKTTPPVLDSDGSFFLYSKLTVDKSRWQQGNVFSCSVMHEALHYHVTQKSLSLSP
light: not shown
notes: EU numbering; copies: 2 + 2
B8: IgG1-F942 (antibody)
heavy: QVQLQESGPGLVKPSETLSLTCAVSGHSISHDHAWSWVRQPPGEGLEWIGFISYSGITNYNPSLQGRVTISRDNSKNTLYLQMNSLRAEDTAVYYCARSLARTTAMDYWGEGTLVTVSSASTKGPSVFPLAPSSKSTSGGTAALGCLVKDYFPEPVTVSWNSGALTSGVHTFPAVLQSSGLYSLSSVVTVPSSSLGTQTYICNVNHKPSNTKVDKKVEPKSCDKTHTCPPCPAPELKGGPKVFLFPPKPKDTLYISRTPEVTCVVVDVSHEDPEVKFNWYVDGVEVHNAKTKPREEQYNSTYRVVSVLQVLHADWLNGKEYKCKVSNKALPAPIEKTISKAKGQPREPQVYTLPPSRDELTKNQVSLTCLVKGFYPSDIAVEWESNGQPENNYKTTPPVLDSDGSFFLYSKLTVDKSRWQQGNVFSCSVMHEALHYHVTQKSLSLSP
light: not shown
notes: EU numbering; copies: 2 + 2
B9: IgG1-F934 (antibody)
heavy: QVQLQESGPGLVKPSETLSLTCAVSGHSISHDHAWSWVRQPPGEGLEWIGFISYSGITNYNPSLQGRVTISRDNSKNTLYLQMNSLRAEDTAVYYCARSLARTTAMDYWGEGTLVTVSSASTKGPSVFPLAPSSKSTSGGTAALGCLVKDYFPEPVTVSWNSGALTSGVHTFPAVLQSSGLYSLSSVVTVPSSSLGTQTYICNVNHKPSNTKVDKKVEPKSCDKTHTCPPCPAPELLKGDSVFLFPPKPKDVLYISRTPEVTCVVVDVSHEDPEVKFNWYVDGVEVHNAKTKPREEQYNSTYRVVSVLTVLHQDWLNGKEYKCKVSNKALPAPIEKTISKAKGQPREPQVYTLPPSRDELTKNQVSLTCLVKGFYPSDIAVEWESNGQPENNYKTTPPVLDSDGSFFLYSKLTVDKSRWQQGNVFSCSVMHEALHYHYTQKSLSLSP
light: not shown
notes: EU numbering; copies: 2 + 2
B10: IgG1-F937 (antibody)
heavy: QVQLQESGPGLVKPSETLSLTCAVSGHSISHDHAWSWVRQPPGEGLEWIGFISYSGITNYNPSLQGRVTISRDNSKNTLYLQMNSLRAEDTAVYYCARSLARTTAMDYWGEGTLVTVSSASTKGPSVFPLAPSSKSTSGGTAALGCLVKDYFPEPVTVSWNSGALTSGVHTFPAVLQSSGLYSLSSVVTVPSSSLGTQTYICNVNHKPSNTKVDKKVEPKSCDKTHTCPPCPAPELLGGDKVFLFPPKPKDVLYISRTPEVTCVVVDVSHEDPEVKFNWYVDGVEVHNAKTKPREEQYNSTYRVVSVLTVLHQDWLNGKEYKCKVSNKALPAPIEKTISKAKGQPREPQVYTLPPSRDELTKNQVSLTCLVKGFYPSDIAVEWESNGQPENNYKTTPPVLDSDGSFFLYSKLTVDKSRWQQGNVFSCSVMHEALHYHYTQKSLSLSP
light: not shown
notes: EU numbering; copies: 2 + 2
B11: IgG1-F932 (antibody)
heavy: QVQLQESGPGLVKPSETLSLTCAVSGHSISHDHAWSWVRQPPGEGLEWIGFISYSGITNYNPSLQGRVTISRDNSKNTLYLQMNSLRAEDTAVYYCARSLARTTAMDYWGEGTLVTVSSASTKGPSVFPLAPSSKSTSGGTAALGCLVKDYFPEPVTVSWNSGALTSGVHTFPAVLQSSGLYSLSSVVTVPSSSLGTQTYICNVNHKPSNTKVDKKVEPKSCDKTHTCPPCPAPELLGGPSVFLFPPKPKDVLYISRTPEVTCVVVDVSHEDPEVKFNWYVDGVEVHNAKTKPREEQYNSTYRVVSVLTVLHQDWLNGKEYKCKVSNKALPAPIEKTISKAKGQPREPQVYTLPPSRDELTKNQVSLTCLVKGFYPSDIAVEWESNGQPENNYKTTPPVLDSDGSFFLYSKLTVDKSRWQQGNVFSCSVMHEALHYHYTQKSLSLSP
light: not shown
notes: EU numbering; copies: 2 + 2
B12: IgG1-F938 (antibody)
heavy: QVQLQESGPGLVKPSETLSLTCAVSGHSISHDHAWSWVRQPPGEGLEWIGFISYSGITNYNPSLQGRVTISRDNSKNTLYLQMNSLRAEDTAVYYCARSLARTTAMDYWGEGTLVTVSSASTKGPSVFPLAPSSKSTSGGTAALGCLVKDYFPEPVTVSWNSGALTSGVHTFPAVLQSSGLYSLSSVVTVPSSSLGTQTYICNVNHKPSNTKVDKKVEPKSCDKTHTCPPCPAPELKGGPKVFLFPPKPKDTLYISRTPEVTCVVVDVSHEDPEVKFNWYVDGVEVHNAKTKPREEQYNSTYRVVSVLTVLHQDWLNGKEYKCKVSNKALPAPIEKTISKAKGQPREPQVYTLPPSRDELTKNQVSLTCLVKGFYPSDIAVEWESNGQPENNYKTTPPVLDSDGSFFLYSKLTVDKSRWQQGNVFSCSVMHEALHYHVTQKSLSLSP
light: not shown
notes: copies: 2 + 2

One may read the Kd as a measure of binding affinity in units of concentration. A lower Kd goes with a tighter complex.
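Also: test antibodies captured on a Protein L chip with human FcRn flowed over as analyte, KD obtained as the ratio of dissociation to association rate constants.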

T1 sequence (chain, as listed by the source limits assumed, chain 1 of 2): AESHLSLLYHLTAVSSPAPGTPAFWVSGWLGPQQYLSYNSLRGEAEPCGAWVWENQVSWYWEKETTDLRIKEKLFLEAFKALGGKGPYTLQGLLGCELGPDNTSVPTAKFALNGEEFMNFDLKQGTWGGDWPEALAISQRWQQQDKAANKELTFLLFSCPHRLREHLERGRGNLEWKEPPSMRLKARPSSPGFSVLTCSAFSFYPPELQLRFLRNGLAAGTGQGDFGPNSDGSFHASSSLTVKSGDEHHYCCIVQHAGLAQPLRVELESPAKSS
T1 sequence (P61769 21-119 limits assumed, chain 2 of 2): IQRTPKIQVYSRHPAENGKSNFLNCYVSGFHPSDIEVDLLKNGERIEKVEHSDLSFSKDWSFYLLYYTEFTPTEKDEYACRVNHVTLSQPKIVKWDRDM

This test addresses T1, soluble human FcRn complexed with β2-microglobulin (human, UniProt P61769 21-119, limits assumed).
T1 construct: also called hFcRn
Briefly: Biacore SPR, pH 7.0. (In general: SPR reads the build-up and loss of mass on a sensor chip optically.)
Regarding B1, the Kd was 140 nM. In other words, the sub-micromolar range.

B2 showed a Kd of 150 nM. This Kd and that of the molecule before are within 1.5-fold of each other.

Take B3: the Kd came to 150 nM. That is a sub-micromolar value.

The molecule B4 gave a dissociation constant Kd of 320 nM.

Consider B5, for which the Kd came out at 300 nM.

The molecule B6 gave a Kd of 120 nM. Compared with the last molecule, the Kd is about 2.5-fold lower.

With B7, the Kd amounted to 40 nM. This Kd is about 3-fold lower than that of the molecule before.

On to B8, for which the dissociation constant Kd stood at 42 nM.

Regarding B9, the dissociation constant Kd was determined as 310 nM.

Consider B10, for which the Kd turned out to be 310 nM. That is a sub-micromolar value.

Molecule B11 displayed a Kd of 320 nM.

Take B12: the Kd came to 160 nM. This Kd lies about 2-fold lower than the previous one.
